According to article PMC11703246:
“And” between values parts separate entries of the source, which are not always exact repeats. Equal values may be shown once. Read-outs that look alike come from different tables or passages of the source.

How the values were obtained:
Assay in all cases: mass photometry
[1] = target: PopZ P146A (Caulobacter crescentus)
[2] = target: PopZ P146A (Caulobacter crescentus); remark: listed apart in the source
[3] = target: isolated OD-ΔL6 of PopZ (residues 102-171) (Caulobacter crescentus)
[4] = target: polar organizing protein Z (PopZ), wild type (Caulobacter crescentus)
[5] = target: ΔH2-PopZ (PopZ lacking residues 102-128) (Caulobacter crescentus)
[6] = target: ΔL6-PopZ (PopZ lacking residues 172-177) (Caulobacter crescentus)
[7] = target: ΔL6-PopZ (PopZ lacking residues 172-177) (Caulobacter crescentus); remark: listed apart in the source
[8] = target: Δloop-PopZ (PopZ lacking residues 129-134) (Caulobacter crescentus)

Question: What does the source list for PopZ P146A (natural protein)?
Answer: stoichiometry N [1]: 3; stoichiometry N [2]: 3

Question: How did the stoichiometry N [3] turn out when “isolated OD-ΔL6 of PopZ (residues 102-171) (domain or fragment)” was run?
Answer: 6

Question: Which stoichiometry N [4] does the source give for “polar organizing protein Z (PopZ), wild type (natural protein)” here?
Answer: 12 and 18

Question: With “ΔH2-PopZ (PopZ lacking residues 102-128) (natural protein)” as the substance, how does the stoichiometry N [5] read?
Answer: 3 and 6

Question: What does the source list for “ΔL6-PopZ (PopZ lacking residues 172-177) (domain or fragment)”?
Answer: stoichiometry N [6]: 6; stoichiometry N [7]: 6

Question: Which stoichiometry N [8] does the source give for “Δloop-PopZ (PopZ lacking residues 129-134) (natural protein)” here?
Answer: 3
